Changes are numbered by the printed parent chain. Names and notes keep the numbering of the source.
B1: hu anti-<huCDH19> 25F8.1 VH::huIgG1z / 25F8.1 (1-235)(K45Q,S102A) VL::huLLC-C2 (Ab ID 14094) (antibody, V domains shown)
VH: QVQLVQSGAEVKKPGASVKVSCKASGYTFTSYYIHWVRQAPGQGLEWMGIINPSGGSTRYAQKFQGRVTMTRDTSTSTVFMELSSLRSEDTAVYYCARGGIQLWLHFDYWGQGTLVTVSS
VL: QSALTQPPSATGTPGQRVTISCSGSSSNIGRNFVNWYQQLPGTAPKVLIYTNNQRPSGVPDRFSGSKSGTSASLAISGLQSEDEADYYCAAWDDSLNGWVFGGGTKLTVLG
notes: Engineered variant of 25F8
B2: hu anti-<huCDH19> 26D1.1 (1-469)(R27G,G82R) VH::huIgG1z / 26D1.1 (1-235)(H1Q,S7P) VL::huLLC-C2 (Ab ID 14088) (antibody, V domains shown)
VH: B1 VH with I34M, H35S, N52H, S57D, R59T, F80Y, Q102K
VL: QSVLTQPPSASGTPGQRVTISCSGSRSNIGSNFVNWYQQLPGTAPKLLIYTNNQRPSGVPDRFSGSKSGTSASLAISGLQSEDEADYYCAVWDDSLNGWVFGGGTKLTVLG
notes: Engineered variant of 26D1
B3: hu anti-<huCDH19> 4A9 VH::huIgG1z / 4A9 (1-239)(F47L) VL::huLLC-C1 (Ab ID 14056) (antibody, V domains shown)
VH: QVQLQESGPGLVKPSETLSLTCTVSGGSISGYYWSWIRQPPGKGLEWFAYFSYSGSTNYNPSLKSRVTLSVDTSKNQFSLKLSSVTAADTAVYYCARNWAFHFDFWGQGTLVTVSS
VL: QSVLTQPPSVSGAPGQRVTISCTGSSSNIGTGYAVHWYQQLPGTAPKLLIYGNNNRPSGVPDRFSGSKSGTSASLAITGLQAEDEADYYCQSYDSRLSGWVFGGGTKLTVLG
notes: Engineered variant of 4A9
B4: hu anti-<huCDH19> 4A9 (1-468)(F55I,A56G) VH::huIgG1z / 4A9 (1-239)(F47L) VL::huLLC-C1 (Ab ID 14057) (antibody, V domains shown)
VH: B3 VH with F48I, A49G
VL: B3 VL
notes: Engineered variant of 4A9
B5: hu anti-<huCDH19> 4B10 (1-471)(R17G,D61E,D72E) VH::huIgG1z / 4B10 (1-236)(H45Q,A90T) VL::huKLC (Ab ID 14055) (antibody, V domains shown)
VH: QVQLVESGGGVVQPGGSLRLSCAASGFTFSSYDMHWVRQAPGKGLEWVAVISYEGTNEYYAESVKGRFTISRDTSKNTLYLQMNSLRAEDTAVYYCARERYFDWSFDYWGQGTLVSVSS
VL: EIVLTQSPGTLSLSPGERATLSCRASQSVSNTYLAWYQQRPGQAPRLLIYGASSRATGIPDRFSGSGSGTDFTLTISSLEPEDFAVYYCQQYSNSWTFGQGTKVEIKR
notes: Engineered variant of 4B10

Molecular target: T1, huCDH19(44-249)::muCDH19(248-770), Flag-tagged, on 293T cells (human/mouse chimera)
T1 construct: also called Hu EC1-2; C137896
Test: FACS, transfected 293T
Text: (§1) The experiment included assaying the anti-CDH19 antibodies against mouse Cadherin19 to determine suitability for binning on these human/mouse chimeras.

Row | Binder | binding result
1 | B1 | binds
2 | B2 | binds
3 | B3 | binds
4 | B4 | binds

Molecular target: T2, huCDH19(44-141)::muCDH19(140-770), Flag-tagged, on 293T cells (human/mouse chimera)
T2 construct: also called Hu EC1
Test: FACS, transfected 293T
Text: as §1

Row | Binder | binding result
5 | B1 | binds
6 | B2 | binds
7 | B3 | binds
8 | B4 | binds

Molecular target: T3, huCDH19(44-772), Flag-tagged, on 293T cells (human, UniProt Q9H159 44-772)
T3 construct: Expressed with native leader (1-43) followed by a Flag tag; leader left out; also called Hu EC1-5
Test: FACS, transfected 293T
Text: as §1

Row | Binder | binding result
9 | B5 | binds
10 | B1 | binds
11 | B2 | binds
12 | B3 | binds
13 | B4 | binds
